Measurements from article doi:10.1101/2023.02.13.528223.

Target: DNMT3A^R736S (human) (UniProt Q9Y6K1)
Test: SEC + other: negative-stain EM

stoichiometry N: 2
Substance: DNMT3A^R736S (from UniProt Q9Y6K1 1-912) (enzyme)
